Measurements reported in article PMC5463187.

Target: RSV strain A2 pre-fusion F, single-chain triple mutant (SC-TM) construct (respiratory syncytial virus subgroup A strain A2)
Assay: crystal structure

Q: How did the stoichiometry N turn out when “RSV strain A2 pre-fusion F, single-chain triple mutant (SC-TM) construct (natural protein)” was run?
A: The stoichiometry N was 3.
